In patent US12522635B2, “Amyloid peptide variants” (Loyola Marymount University, priority 2019, dated 2026):
Where no end group is shown, it is not given here.

How the values were obtained:
human IAPP (hIAPP) [1] = target: T1, human IAPP (hIAPP) (Homo sapiens, UniProt P10997); assay: Thioflavin T binding assay of hIAPP aggregation when mixed with IAPP peptides; format: biochemical; settings: for inhibition of hIAPP aggregation, thioflavin T binding: hIAPP mixed with peptide, incubated at 37° C. with shaking; for inhibition of hIAPP aggregation (summary statement): peptide mixed with hIAPP, no single assay (thioflavin T and AFM)
T1 construct: This 37 amino acid polypeptide is co-secreted from pancreatic β-islet cells with insulin
T1 sequence (P10997 34-70 limits assumed): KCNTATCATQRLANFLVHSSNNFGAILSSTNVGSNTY
Excerpt: Any of a number of assays known to the art can be used to evaluate the ability of IAPP peptides to inhibit hIAPP aggregation and/or protect cells from hIAPP toxicity. Thioflavin T (ThT) binding is one such technique for identifying amyloid formation in real time. Human IAPP is known to bind thioflavin T during aggregation and amyloid formation, and upon binding to amyloid fibrils ThT will give a strong fluorescence signal at approximately 482 nm when excited at 450 nm. ThT fluorescence correlates linearly with amyloid concentration in a sample and therefore can be used to determine the amount of aggregation in a sample. This technique can therefore be used for identifying substances with amyloid-inhibiting potential when such substances are mixed with human IAPP under conditions known to result in the formation of aggregates by hIAPP. Determining the extent of aggregation can also be determined using other techniques, such as Atomic Force Microscopy (AFM), which can provide information about particle dimensions, shape, and substructure with nanometer resolution. In the foregoing assays and others that can be used by one of skill in the art, significant inhibition can be determined using a t-test by measuring the difference between hIAPP and hIAPP combined with an IAPP peptide.
To identify IAPP peptides having inhibitory potential against hIAPP aggregation, the peptides shown in FIG. 1 from a number of species (cow, degu, guinea pig, horse, pig, rat, and sheep[…]) were mixed with hIAPP at a 2:1 molar ratio of animal peptide to hIAPP and incubated under conditions known to promote hIAPP aggregation and fibril formation. IAPP alone, or hIAPP mixed with an animal IAPP, was pipetted into a glass tube and the HFIP was removed under speed-vacuum. The resulting peptide sample was dissolved in 20 mM Tris buffer pH 7.4.
37 μM human IAPP was mixed with 75 μM of each indicated animal IAPP. Aggregation was initiated by incubating samples at 37° C. with shaking at 200 rpm for 40 minutes. At indicated time points, a 17 μL aliquot of each sample was mixed with 663 μL of 50.0 μM thioflavin T in 20 mM Tris buffer (pH 7.4). Thioflavin T fluorescence emission was then recorded at 488 nm using a Hitachi F-7000 fluorescence spectrophotometer.
After 40 minutes, these samples were monitored for their ability to bind thioflavin T (see FIG. 2) and their ability to form fibrils as identified with atomic force microscopy.
Human IAPP (37 μM) was mixed with each of the indicated Weddell seal variants (at 75 μM) and incubated for 30 minutes at 37° C. with shaking at 200 rpm. The Weddell seal IAPP peptides were likewise subjected to atomic force microscopy as described in Example 2.
Human IAPP was mixed with each of the indicated raccoon variants and incubated at 37° C. with shaking.
Human IAPP was mixed with each of the indicated chicken variants and incubated at 37° C. with shaking. […] However, it was able to protect cells in MTT assays, so it is believed to inhibit formation of toxic oligomers while having a lesser effect on inhibiting the formation of fibers (which are less toxic and less able to bind ThT).
Human IAPP was mixed with each of the indicated chicken variants and incubated at 37° C. with shaking.

RIN-m cells = assay: MTT viability assay, peptide alone or mixed with hIAPP; format: cell-based; settings: hIAPP mixed with peptide 1:1, MTT assay
Excerpt: Cytoprotection can likewise be measured by a number of assays known to the art. One such assay is the MTT assay, which is a colorimetric assay for assessing cell metabolic activity. NAD(P)H-dependent cellular oxidoreductase enzymes in the cytosolic compartment of a cell reduces the tetrazolium dye MTT 3-(4,5-dimethylthiazol-2-yl)-2,5-diphenyltetrazolium bromide to an insoluble form, formazan, which has a purple color. The reduction of MTT (and other tetrazolium dyes) depends on the cellular metabolic activity, so a loss of color in the course of performing an MTT assay indicates low metabolic activity, and is thus an indicator of cell damage and death.
To test cell viability, a MTT colorimetric assay measuring the conversion of yellow tetrazolium salt into purple formazan crystal catalyzed by a mitochondrial reductase was used. Cell viability studies were performed using RIN-m cells (ATCC, CRL-2057). An equal number of RIN-m cells were plated in triplicate and incubated overnight in 96-well plates. The next day, fresh RPMI-1640 with phenol red supplemented with 10% FBS was added to cells. Hexafluoroisopropanol (HFIP) was removed from each individual human and animal IAPP using a centrivap concentrator (LabOnco). All IAPP peptide samples were re-suspended in RPMI-1640 with 10% FBS. To ensure even re-suspension, each resulting IAPP-containing vial was scraped with a pipette tip six times and vortexed (Vortex Genie Mixer) for 15 seconds. The whole process, from drying each IAPP peptide to adding each IAPP peptide to the cells was uniform to ensure that each sample was incubated for an equal amount of time with each IAPP peptide. IAPP peptides were added to cells and incubated for 46 hours at 37° C. Post-incubation, the media in each well was replaced by fresh DMEM/F-12 without phenol red. MTT (3-(4,5-dimethyl-2-thiazolyl)-2,5-diphenyl-tetrazolium bromide) was added into each well and incubated at 37° C. for 2 hours. Formazan crystals, formed on the bottom of the wells, were re-suspended in solubilization buffer (20% SDS and 50% dimethylformamide). The absorbance in each well was taken at 570 nm using a Multiskan FC Microplate Photometer (Thermos Fisher Scientific). Media were obtained from ATCC. All incubations took place in a water jacketed incubator in 5% carbon dioxide at 37° C. (Shell Lab).
The MTT viability assay was used to measure cell viability of RIN-m cells upon addition of hIAPP alone, the addition of each animal IAPP peptide alone, and hIAPP mixed with each animal IAPP peptide (results shown in FIG. 5). RIN-m cells alone were used as a control and set to 100% cell viability. […] Addition of raccoon IAPP to hIAPP increased the cell viability from 55% to an average of 72% (p=0.005705). Addition of chicken IAPP variant to hIAPP increased cell viability to an average of 76% (p=0.013556).

human IAPP (hIAPP) [2] = target: T1, human IAPP (hIAPP); assay: Atomic force microscopy (AFM) of hIAPP fibril formation when mixed with IAPP peptides; format: biochemical; settings: 37 μM hIAPP and 75 μM peptide, 37° C. with shaking for 40 minutes
Method: Samples labeled with hIAPP contained 40 μM hIAPP. The sample with pramlintide and hIAPP contained a 2:1 molar mixture (80 μM Pramlintide mixed with 40 μM hIAPP). The samples with raccoon IAPP and Pramlintide alone contained 40 μM of the indicated peptides. Each sample was incubated for 40 minutes at 37° C. with shaking; conditions known to promote hIAPP amyloid formation. All scans show raw data with no flattening and are […].
Each sample contained 37 μM hIAPP and 75 μM of the indicated peptide. Samples were incubated at 37° C. with shaking for 40 minutes. All scans show raw data with no flattening and are […].
Each sample contained 37 μM hIAPP mixed with 37 μM of the indicated peptide. Samples were incubated at 37° C. with shaking for 30 minutes before depositing each sample onto freshly cleaved mica.
Samples of hIAPP with or without animal IAPP were prepared as described in Example 1 and were then incubated with shaking at 37° C. for 40 minutes. After this incubation, 17 μL of each sample was deposited onto freshly cleaved mica. Samples were incubated for 5 minutes at room temperature before washing with 200 μL sterile water. After drying, the samples were scanned using an MFP-3D atomic force microscope (Asylum Research) set on A/C mode and a 240 m silicon cantilever (Olympus).
Many of the animal IAPP variants are known to likewise form fibrils and yield amyloid-plaques when scanned via AFM. […] This is in spite of the fact that all of these IAPP peptides (except polar bear IAPP) are known to aggregate and form fibrils themselves under these or similar conditions

Row | Substance | inhibition of hIAPP aggregation, thioflavin T binding (human IAPP (hIAPP) [1]) | rescue / protection of cells from hIAPP toxicity (words) (RIN-m cells) | inhibition of hIAPP fibril formation, AFM (human IAPP (hIAPP) [2]) | inhibition of hIAPP aggregation (summary statement) (human IAPP (hIAPP) [1])
1 | KCNTATCVTQRLADFLVRSSSNIGAILSPTNVGSNTY (Gallus gallus mutation) [Ch_Y26L] | inhibited hIAPP aggregation | rescued cells from hIAPP-induced cytotoxicity | – | –
2 | R8-30: truncated raccoon IAPP peptide of FIG. 19; sequence not printed in the text (VTQRLANFLLRSSNNLGAILSPT) | – | – | did not inhibit hIAPP aggregation | –
3 | SEQ ID NO:23: raccoon IAPP peptide with amino acids removed from the N-terminal end (ATQRLANFLLRSSNNLGAILSPTNVGSNTY; Procyon lotor truncation) | – | failed to inhibit aggregation of hIAPP or reduce its cytotoxicity | – | failed to inhibit aggregation of hIAPP or reduce its cytotoxicity
4 | R1-23: truncated raccoon IAPP peptide of FIG. 19; sequence not printed in the text (KCNTATCVTQRLANFLLRSSNNL) | – | – | did not inhibit hIAPP aggregation | –
5 | SEQ ID NO:21: raccoon IAPP peptide with amino acids removed from the N-terminal end (FLLRSSNNLGAILSPTNVGSNTY; Procyon lotor truncation) | – | failed to inhibit aggregation of hIAPP or reduce its cytotoxicity | – | failed to inhibit aggregation of hIAPP or reduce its cytotoxicity
6 | SEQ ID NO:24: raccoon IAPP peptide with amino acids removed from the middle (VTQRLANFLLRSSNNLGAILSPT; Procyon lotor truncation) | – | failed to inhibit aggregation of hIAPP or reduce its cytotoxicity | – | failed to inhibit aggregation of hIAPP or reduce its cytotoxicity
7 | R8-23: truncated raccoon IAPP peptide of FIG. 19; sequence not printed in the text (VTQRLANFLLRSSNNL) | – | – | did not inhibit hIAPP aggregation | –
8 | KCNTATCVTQRLANFLLRSSNNIGAILSPTNVGSNTY (Procyon lotor mutation) [Rac_L22I] | inhibited hIAPP aggregation | – | – | –
9 | KCNTATCVTQRLANFLVRSSNNLGAILSPTNVGSNTY (Procyon lotor mutation) [Rac_L16V] | inhibited hIAPP aggregation | – | – | –
10 | SEQ ID NO:25: raccoon IAPP peptide with amino acids removed from the middle (VTQRLANFLLRSSNNL; Procyon lotor truncation) | – | failed to inhibit aggregation of hIAPP or reduce its cytotoxicity | – | failed to inhibit aggregation of hIAPP or reduce its cytotoxicity
11 | KCNTATCATQRLANFLVRSSNNFGAILSPTNVGSNTY (KTATCATQRLANFLVHSSNNLGAILSPTNVGSNTY; Leptonychotes weddellii mutation) [WS_RP] | – | rescued cells from hIAPP toxicity | – | –
12 | KCNTATCATQRLANFLLRSSNNLGAILSPTNVGSNTY (Procyon lotor mutation) [Rac_V8A] | inhibited hIAPP aggregation | – | – | –
13 | KCNTATCVTQRLADFLLRSSNNLGAILSPTNVGSNTY (Procyon lotor mutation) [Rac_N13D] | inhibited hIAPP aggregation | – | – | –
14 | SEQ ID NO:22: raccoon IAPP peptide with amino acids removed from the middle (FLLRSSNNLGAILSPTN; Procyon lotor truncation) | – | failed to inhibit aggregation of hIAPP or reduce its cytotoxicity | – | failed to inhibit aggregation of hIAPP or reduce its cytotoxicity
15 | KCNTATCVTQRLANFLLRSSNNLGAILSPT (ends and bridges not checked; cysteine pairing not given here) [R1-30] | inhibited hIAPP aggregation | rescued cells from hIAPP-induced cytotoxicity | – | –
16 | KCNTATCVTQRLADFLLRSSSNIGAIYSPTNVGSNTY (Gallus gallus mutation) [Ch_V16L] | inhibited hIAPP aggregation | rescued cells from hIAPP-induced cytotoxicity | – | –
